In the Human Domainome abundance scans (Beltran et al. 2025):
± gives the uncertainty stated by the source.

B1: Far upstream element-binding protein 3, residues 75 to 150; numbered along this chain, Q96I24 (parent)
chain: RTVITEEFKVPDKMVGFIIGRGGEQISRIQAESGCKIQIASESSGIPERPCVLTGTPESIEQAKRLLGQIVDRCRN

Variants of: B1
Experiment: abundance fitness (aPCA) (normalised: wild type 0, dead -1); higher = more abundant; growth selection in yeast, the domain comes from the species named
Conditions: Homo sapiens

Variant | abundance fitness
RTVITEEFKVPDKMVRFIIGRGGEQISRIQAESGCKIQIASESSGIPERPCVLTGTPESIEQAKRLLGQIVDRCRN [G16R] | -0.037 ± 0.028
RTVITEEFKVPDKMVCFIIGRGGEQISRIQAESGCKIQIASESSGIPERPCVLTGTPESIEQAKRLLGQIVDRCRN [G16C] | -0.074 ± 0.041
RTVITEEFKVPDKMVNFIIGRGGEQISRIQAESGCKIQIASESSGIPERPCVLTGTPESIEQAKRLLGQIVDRCRN [G16N] | -0.055 ± 0.065
RTVITEEFKVPDKMVHFIIGRGGEQISRIQAESGCKIQIASESSGIPERPCVLTGTPESIEQAKRLLGQIVDRCRN [G16H] | -0.042 ± 0.052
RTVITEEFKVPDKMVIFIIGRGGEQISRIQAESGCKIQIASESSGIPERPCVLTGTPESIEQAKRLLGQIVDRCRN [G16I] | -0.194 ± 0.075
RTVITEEFKVPDKMVDFIIGRGGEQISRIQAESGCKIQIASESSGIPERPCVLTGTPESIEQAKRLLGQIVDRCRN [G16D] | -0.003 ± 0.043
RTVITEEFKVPDKMVEFIIGRGGEQISRIQAESGCKIQIASESSGIPERPCVLTGTPESIEQAKRLLGQIVDRCRN [G16E] | -0.001 ± 0.034
RTVITEEFKVPDKMVVFIIGRGGEQISRIQAESGCKIQIASESSGIPERPCVLTGTPESIEQAKRLLGQIVDRCRN [G16V] | -0.172 ± 0.031
RTVITEEFKVPDKMVWFIIGRGGEQISRIQAESGCKIQIASESSGIPERPCVLTGTPESIEQAKRLLGQIVDRCRN [G16W] | -0.21 ± 0.038
RTVITEEFKVPDKMVSFIIGRGGEQISRIQAESGCKIQIASESSGIPERPCVLTGTPESIEQAKRLLGQIVDRCRN [G16S] | -0.032 ± 0.035
RTVITEEFKVPDKMVTFIIGRGGEQISRIQAESGCKIQIASESSGIPERPCVLTGTPESIEQAKRLLGQIVDRCRN [G16T] | -0.063 ± 0.037
RTVITEEFKVPDKMVLFIIGRGGEQISRIQAESGCKIQIASESSGIPERPCVLTGTPESIEQAKRLLGQIVDRCRN [G16L] | -0.148 ± 0.032
RTVITEEFKVPDKMVFFIIGRGGEQISRIQAESGCKIQIASESSGIPERPCVLTGTPESIEQAKRLLGQIVDRCRN [G16F] | -0.223 ± 0.063
RTVITEEFKVPDKMVYFIIGRGGEQISRIQAESGCKIQIASESSGIPERPCVLTGTPESIEQAKRLLGQIVDRCRN [G16Y] | -0.135 ± 0.058
RTVITEEFKVPDKMVPFIIGRGGEQISRIQAESGCKIQIASESSGIPERPCVLTGTPESIEQAKRLLGQIVDRCRN [G16P] | -0.029 ± 0.041
RTVITEEFKVPDKMVMFIIGRGGEQISRIQAESGCKIQIASESSGIPERPCVLTGTPESIEQAKRLLGQIVDRCRN [G16M] | -0.12 ± 0.043
RTVITEEFKVPDKMVKFIIGRGGEQISRIQAESGCKIQIASESSGIPERPCVLTGTPESIEQAKRLLGQIVDRCRN [G16K] | 0.018 ± 0.042
RTVITEEFKVPDKMVQFIIGRGGEQISRIQAESGCKIQIASESSGIPERPCVLTGTPESIEQAKRLLGQIVDRCRN [G16Q] | -0.027 ± 0.039
RTVITEEFKVPDKMVGFFIGRGGEQISRIQAESGCKIQIASESSGIPERPCVLTGTPESIEQAKRLLGQIVDRCRN [I18F] | -0.133 ± 0.064
RTVITEEFKVPDKMVGFDIGRGGEQISRIQAESGCKIQIASESSGIPERPCVLTGTPESIEQAKRLLGQIVDRCRN [I18D] | -0.142 ± 0.046
RTVITEEFKVPDKMVGFNIGRGGEQISRIQAESGCKIQIASESSGIPERPCVLTGTPESIEQAKRLLGQIVDRCRN [I18N] | -0.295 ± 0.056
RTVITEEFKVPDKMVGFWIGRGGEQISRIQAESGCKIQIASESSGIPERPCVLTGTPESIEQAKRLLGQIVDRCRN [I18W] | -0.243 ± 0.037
RTVITEEFKVPDKMVGFHIGRGGEQISRIQAESGCKIQIASESSGIPERPCVLTGTPESIEQAKRLLGQIVDRCRN [I18H] | -0.279 ± 0.058
RTVITEEFKVPDKMVGFSIGRGGEQISRIQAESGCKIQIASESSGIPERPCVLTGTPESIEQAKRLLGQIVDRCRN [I18S] | -0.271 ± 0.034

Variant | abundance fitness
RTVITEEFKVPDKMVGFYIGRGGEQISRIQAESGCKIQIASESSGIPERPCVLTGTPESIEQAKRLLGQIVDRCRN [I18Y] | -0.261 ± 0.065
RTVITEEFKVPDKMVGFKIGRGGEQISRIQAESGCKIQIASESSGIPERPCVLTGTPESIEQAKRLLGQIVDRCRN [I18K] | -0.279 ± 0.039
RTVITEEFKVPDKMVGFGIGRGGEQISRIQAESGCKIQIASESSGIPERPCVLTGTPESIEQAKRLLGQIVDRCRN [I18G] | -0.272 ± 0.027
RTVITEEFKVPDKMVGFPIGRGGEQISRIQAESGCKIQIASESSGIPERPCVLTGTPESIEQAKRLLGQIVDRCRN [I18P] | -0.192 ± 0.041
RTVITEEFKVPDKMVGFVIGRGGEQISRIQAESGCKIQIASESSGIPERPCVLTGTPESIEQAKRLLGQIVDRCRN [I18V] | -0.085 ± 0.03
RTVITEEFKVPDKMVGFLIGRGGEQISRIQAESGCKIQIASESSGIPERPCVLTGTPESIEQAKRLLGQIVDRCRN [I18L] | -0.085 ± 0.032
RTVITEEFKVPDKMVGFEIGRGGEQISRIQAESGCKIQIASESSGIPERPCVLTGTPESIEQAKRLLGQIVDRCRN [I18E] | -0.182 ± 0.035
RTVITEEFKVPDKMVGFRIGRGGEQISRIQAESGCKIQIASESSGIPERPCVLTGTPESIEQAKRLLGQIVDRCRN [I18R] | -0.425 ± 0.028
RTVITEEFKVPDKMVGFMIGRGGEQISRIQAESGCKIQIASESSGIPERPCVLTGTPESIEQAKRLLGQIVDRCRN [I18M] | -0.079 ± 0.039
RTVITEEFKVPDKMVGFQIGRGGEQISRIQAESGCKIQIASESSGIPERPCVLTGTPESIEQAKRLLGQIVDRCRN [I18Q] | -0.234 ± 0.04
RTVITEEFKVPDKMVGFAIGRGGEQISRIQAESGCKIQIASESSGIPERPCVLTGTPESIEQAKRLLGQIVDRCRN [I18A] | -0.225 ± 0.031
RTVITEEFKVPDKMVGFIDGRGGEQISRIQAESGCKIQIASESSGIPERPCVLTGTPESIEQAKRLLGQIVDRCRN [I19D] | -0.071 ± 0.055
RTVITEEFKVPDKMVGFILGRGGEQISRIQAESGCKIQIASESSGIPERPCVLTGTPESIEQAKRLLGQIVDRCRN [I19L] | -0.024 ± 0.033
RTVITEEFKVPDKMVGFIQGRGGEQISRIQAESGCKIQIASESSGIPERPCVLTGTPESIEQAKRLLGQIVDRCRN [I19Q] | -0.048 ± 0.041
RTVITEEFKVPDKMVGFIKGRGGEQISRIQAESGCKIQIASESSGIPERPCVLTGTPESIEQAKRLLGQIVDRCRN [I19K] | -0.057 ± 0.053
RTVITEEFKVPDKMVGFICGRGGEQISRIQAESGCKIQIASESSGIPERPCVLTGTPESIEQAKRLLGQIVDRCRN [I19C] | -0.093 ± 0.047
RTVITEEFKVPDKMVGFIHGRGGEQISRIQAESGCKIQIASESSGIPERPCVLTGTPESIEQAKRLLGQIVDRCRN [I19H] | -0.163 ± 0.074
RTVITEEFKVPDKMVGFIPGRGGEQISRIQAESGCKIQIASESSGIPERPCVLTGTPESIEQAKRLLGQIVDRCRN [I19P] | -0.25 ± 0.043
RTVITEEFKVPDKMVGFIMGRGGEQISRIQAESGCKIQIASESSGIPERPCVLTGTPESIEQAKRLLGQIVDRCRN [I19M] | -0.062 ± 0.043
RTVITEEFKVPDKMVGFIAGRGGEQISRIQAESGCKIQIASESSGIPERPCVLTGTPESIEQAKRLLGQIVDRCRN [I19A] | -0.074 ± 0.034
RTVITEEFKVPDKMVGFIGGRGGEQISRIQAESGCKIQIASESSGIPERPCVLTGTPESIEQAKRLLGQIVDRCRN [I19G] | -0.102 ± 0.03
RTVITEEFKVPDKMVGFIEGRGGEQISRIQAESGCKIQIASESSGIPERPCVLTGTPESIEQAKRLLGQIVDRCRN [I19E] | -0.081 ± 0.051
RTVITEEFKVPDKMVGFINGRGGEQISRIQAESGCKIQIASESSGIPERPCVLTGTPESIEQAKRLLGQIVDRCRN [I19N] | -0.001 ± 0.069
RTVITEEFKVPDKMLGFIIGRGGEQISRIQAESGCKIQIASESSGIPERPCVLTGTPESIEQAKRLLGQIVDRCRN [V15L] | -0.061 ± 0.03

Variant | abundance fitness
RTVITEEFKVPDKMKGFIIGRGGEQISRIQAESGCKIQIASESSGIPERPCVLTGTPESIEQAKRLLGQIVDRCRN [V15K] | -0.119 ± 0.043
RTVITEEFKVPDKMSGFIIGRGGEQISRIQAESGCKIQIASESSGIPERPCVLTGTPESIEQAKRLLGQIVDRCRN [V15S] | -0.102 ± 0.033
RTVITEEFKVPDKMQGFIIGRGGEQISRIQAESGCKIQIASESSGIPERPCVLTGTPESIEQAKRLLGQIVDRCRN [V15Q] | -0.162 ± 0.043
RTVITEEFKVPDKMYGFIIGRGGEQISRIQAESGCKIQIASESSGIPERPCVLTGTPESIEQAKRLLGQIVDRCRN [V15Y] | -0.141 ± 0.065
RTVITEEFKVPDKMPGFIIGRGGEQISRIQAESGCKIQIASESSGIPERPCVLTGTPESIEQAKRLLGQIVDRCRN [V15P] | -0.37 ± 0.049
RTVITEEFKVPDKMTGFIIGRGGEQISRIQAESGCKIQIASESSGIPERPCVLTGTPESIEQAKRLLGQIVDRCRN [V15T] | -0.158 ± 0.038
RTVITEEFKVPDKMMGFIIGRGGEQISRIQAESGCKIQIASESSGIPERPCVLTGTPESIEQAKRLLGQIVDRCRN [V15M] | -0.073 ± 0.043
RTVITEEFKVPDKMNGFIIGRGGEQISRIQAESGCKIQIASESSGIPERPCVLTGTPESIEQAKRLLGQIVDRCRN [V15N] | -0.349 ± 0.06
RTVITEEFKVPDKMVGSIIGRGGEQISRIQAESGCKIQIASESSGIPERPCVLTGTPESIEQAKRLLGQIVDRCRN [F17S] | -0.034 ± 0.038
RTVITEEFKVPDKMVGDIIGRGGEQISRIQAESGCKIQIASESSGIPERPCVLTGTPESIEQAKRLLGQIVDRCRN [F17D] | 0.081 ± 0.05
RTVITEEFKVPDKMVGGIIGRGGEQISRIQAESGCKIQIASESSGIPERPCVLTGTPESIEQAKRLLGQIVDRCRN [F17G] | -0.06 ± 0.029
RTVITEEFKVPDKMVGQIIGRGGEQISRIQAESGCKIQIASESSGIPERPCVLTGTPESIEQAKRLLGQIVDRCRN [F17Q] | -0.031 ± 0.045
RTVITEEFKVPDKMVGAIIGRGGEQISRIQAESGCKIQIASESSGIPERPCVLTGTPESIEQAKRLLGQIVDRCRN [F17A] | -0.013 ± 0.034
RTVITEEFKVPDKMVGPIIGRGGEQISRIQAESGCKIQIASESSGIPERPCVLTGTPESIEQAKRLLGQIVDRCRN [F17P] | -0.095 ± 0.047
RTVITEEFKVPDKMVGVIIGRGGEQISRIQAESGCKIQIASESSGIPERPCVLTGTPESIEQAKRLLGQIVDRCRN [F17V] | -0.028 ± 0.031
RTVITEEFKVPDKMVGYIIGRGGEQISRIQAESGCKIQIASESSGIPERPCVLTGTPESIEQAKRLLGQIVDRCRN [F17Y] | -0.019 ± 0.065
RTVITEEFKVPDKMVGWIIGRGGEQISRIQAESGCKIQIASESSGIPERPCVLTGTPESIEQAKRLLGQIVDRCRN [F17W] | -0.052 ± 0.037
RTVITEEFKVPDKMVGEIIGRGGEQISRIQAESGCKIQIASESSGIPERPCVLTGTPESIEQAKRLLGQIVDRCRN [F17E] | 0.025 ± 0.037
RTVITEEFKVPDKMVGNIIGRGGEQISRIQAESGCKIQIASESSGIPERPCVLTGTPESIEQAKRLLGQIVDRCRN [F17N] | -0.141 ± 0.058
RTVITEEFKVPDKMVGCIIGRGGEQISRIQAESGCKIQIASESSGIPERPCVLTGTPESIEQAKRLLGQIVDRCRN [F17C] | -0.074 ± 0.046
RTVITEEFKVPDKMVGHIIGRGGEQISRIQAESGCKIQIASESSGIPERPCVLTGTPESIEQAKRLLGQIVDRCRN [F17H] | -0.026 ± 0.061
RTVITEEFKVPDKMVGRIIGRGGEQISRIQAESGCKIQIASESSGIPERPCVLTGTPESIEQAKRLLGQIVDRCRN [F17R] | -0.018 ± 0.029
RTVITEEFKVPDKMVGLIIGRGGEQISRIQAESGCKIQIASESSGIPERPCVLTGTPESIEQAKRLLGQIVDRCRN [F17L] | -0.065 ± 0.034
RTVITEEFKVPDKMVGIIIGRGGEQISRIQAESGCKIQIASESSGIPERPCVLTGTPESIEQAKRLLGQIVDRCRN [F17I] | -0.05 ± 0.07
